Measured values reported in US20160152725A1 (Memorial Sloan Kettering, published 2016).

Legend:
[1] = molecular target: T1, HLA-A2/pp65 (…) on T2 cells (human; human cytomegalovirus); assay: flow cytometry on peptide-loaded T2 cells
T1 construct: also called T2 cells loaded with control peptide pp65

[2] = molecular target: HLA-A2/WT1 235-243 (…) complex (human, biotin at a specific biotinylation site at the C-terminus); assay: ELISA on wells coated with the named HLA-A2/peptide monomer, HRP anti-Flag detection, OD 490 nm
[3] = molecular target: HLA-A2/WT1 187-195 (…) complex (human, biotin at a specific biotinylation site at the C-terminus); assay: as above
[4] = molecular target: T2, biotinylated HLA-A2/WT1126 (…) monomer (human, biotin at a specific biotinylation site at the C-terminus); assay: SPR (Biacore)
T2 construct: also called HLA-A2-WT1 monomer; WT1126/HLA-A2

[5] = molecular target: T2, biotinylated HLA-A2/WT1126 (…) monomer; assay: SPR Biacore T100; biotinylated pMHC captured, antibody injected; 1:1 fit
HLA-A2/CDR2 (…) tetramer = molecular target: T3, HLA-A2/CDR2 (…) tetramer (human); assay: flow cytometry of scFv-displaying yeast, negative control HLA-A2-CDR2 tetramer (y, Binding) against scFv expression (x)
T3 construct: Peptide from cerebellar degeneration-related protein 2; also called negative control (HLA-A2-CDR2) tetramer; irrelevant HLA-A2/CDR2-derived peptide

B1: Clone45 scFv (scFv)
scFv: EVQLLESGGGLVQPGGSLRLSCAASGFTFSSYAMSWVRQAPGKGLEWVSQIDPWGQETLYADSVKGRFTISRDNSKNTLYLQMNSLRAEDTAVYYCAKLTGRFDYWGQGTLVTVSSGGGGSGGGGSGGGGSTDIQMTQSPSSLSASVGDRVTITCRASQSISSYLNWYQQKPGKAPKLLIYSASQLQSGVPSRFSGSGSGTDFTLTISSLQPEDFATYYCQQGPGTPNTFGQGTKVEIKRA
notes: also called scFv Clone45; parental Clone45
B1: no binding [1]; no binding [2]; no binding [3]. For the same binder, the Kd [4] was 300 nM, the Kd [5] was 263 nM and the binding result (HLA-A2/CDR2 (…) tetramer) was “no binding”.
